Experimental findings from paper PMC7060721 are described below.

In this test the target is ENLARGED VESSEL ELEMENT (EVE) homolog of Physcomitrella patens (Physcomitrella patens). Put plainly: SEC-MALS.

On to “ENLARGED VESSEL ELEMENT (EVE) homolog of Physcomitrella patens (natural protein)”, for which the stoichiometry N came to 5.

Broadly, the stoichiometry N is a count of units in the complex or per binding partner.
